Substitutions are numbered along the chain they refer to. Numbers in names are those of the source.

Experimental findings from PMC8406831, “High-resolution structure of the amino acid transporter AdiC reveals insights into the role of water molecules and networks in oligomerization and substrate binding” (BMC Biology, 2021) are described below.

The data set concerns the molecule itself. Kind of data set: SEC; Superdex 200 5/150 GL, 20 mM Tris-HCl, pH 8.0, 150 mM NaCl, 0.04% (w/v) DDM; elution volumes of the mutants compared with the wild type.

B1: AdiC-Q88E (natural protein, E. coli)
chain: MSSDADAHKVGLIPVTLMVSGNIMGSGVFLLPANLASTGGIAIYGWLVTIIGALGLSMVYAKMSFLDPSPGGSYAYARRCFGPFLGYETNVLYWLACWIGNIAMVVIGVGYLSYFFPILKDPLVLTITCVVVLWIFVLLNIVGPKMITRVQAVATVLALIPIVGIAVFGWFWFRGETYMAAWNVSGLGTFGAIQSTLNVTLWSFIGVESASVAAGVVKNPKRNVPIATIGGVLIAAVCYVLSTTAIMGMIPNAALRVSASPFGDAARMALGDTAGAIVSFCAAAGCLGSLGGWTLLAGQTAKAAADDGLFPPIFARVNKAGTPVAGLIIVGILMTIFQLSSISPNATKEFGLVSSVSVIFTLVPYLYTCAALLLLGHGHFGKARPAYLAVTTIAFLYCIWAVVGSGAKEVMWSFVTLMVITAMYALNYNRLHKNPYPLDAPISKD
notes: AdiC, L-arginine/agmatine transporter of E. coli (gene from XL1-Blue genomic DNA, vector pZUDF21) with the point mutation Q88E; Residues of the HRV3C site may remain at the C-terminus after cleavage; source: E. coli BL21(DE3) pLysS, purified (Ni-NTA in DDM, on-column HRV3C cleavage); not shown: deca His-tag, C-terminal, cleaved
Turning to B1, the binding result is recorded as “binds”.

B2: AdiC-T421V (natural protein, E. coli)
chain: B1 chain with E88Q, T421V
notes: AdiC, L-arginine/agmatine transporter of E. coli (gene from XL1-Blue genomic DNA, vector pZUDF21) with the point mutation T421V; Residues of the HRV3C site may remain at the C-terminus after cleavage; source: E. coli BL21(DE3) pLysS, purified (Ni-NTA in DDM, on-column HRV3C cleavage); not shown: deca His-tag, C-terminal, cleaved
For the protein B2, the binding result was “binds”.

B3: AdiC-Y367F (natural protein, E. coli)
chain: B1 chain with E88Q, Y367F
notes: AdiC, L-arginine/agmatine transporter of E. coli (gene from XL1-Blue genomic DNA, vector pZUDF21) with the point mutation Y367F; Residues of the HRV3C site may remain at the C-terminus after cleavage; source: E. coli BL21(DE3) pLysS, purified (Ni-NTA in DDM, on-column HRV3C cleavage); not shown: deca His-tag, C-terminal, cleaved
With B3, the binding result is recorded as “binds”.
